Measured values reported in patent US20250361311A1 (Xencor, published 2025).

Assays:
[1] = biological target: T1, membrane-bound TL1A transiently expressed on CHO cells (human, UniProt O95150 1-251); test: flow cytometry on CHO cells transiently transfected with TL1A, 1 hour at 4 C
T1 construct: whole, on cells
T1 sequence (looked up): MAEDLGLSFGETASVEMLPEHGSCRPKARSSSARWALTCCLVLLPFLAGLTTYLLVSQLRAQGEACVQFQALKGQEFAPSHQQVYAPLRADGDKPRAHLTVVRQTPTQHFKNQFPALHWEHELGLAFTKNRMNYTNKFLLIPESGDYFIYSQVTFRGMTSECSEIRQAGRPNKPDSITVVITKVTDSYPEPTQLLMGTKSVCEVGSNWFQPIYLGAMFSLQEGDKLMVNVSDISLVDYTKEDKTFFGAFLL
Experimental: Anti-TL1A mAbs were first screened for binding affinity to membrane-bound TL1A. CHO cells were transiently transfected to express TL1A, then were incubated with anti-TL1A mAbs for 1 hour at 4° C. and analyzed by flow cytometry. Hundreds of anti-TL1A mAbs were screened for binding, in order to determine which were the best binders to investigate further. […] The binding data is depicted in FIG. 16A.

TRAIL = TRAIL (UniProt P50591 114-281); test: BLI (Octet RH96, FIG. 22)
LIGHT = LIGHT (UniProt O43557 74-240, limits assumed); test: BLI (Octet RH96, FIG. 22)
FasL = biological target: T2, FasL (UniProt P48023 134-281, limits assumed); test: BLI (Octet RH96, FIG. 22)
T2 sequence (looked up): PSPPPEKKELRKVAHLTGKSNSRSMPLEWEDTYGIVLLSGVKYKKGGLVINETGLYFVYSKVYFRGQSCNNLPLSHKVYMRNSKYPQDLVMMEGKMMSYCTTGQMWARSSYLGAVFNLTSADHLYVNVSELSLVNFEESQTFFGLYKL

[2] = biological target: T3, soluble recombinant human TL1A trimer (human, UniProt O95150 72-251, limits assumed); test: SPR at 37 C, soluble TL1A trimer up to 100 nM; apparent KD (KDapp)
T3 construct: also called active TL1A trimer; trimeric TL1A
T3 sequence (looked up): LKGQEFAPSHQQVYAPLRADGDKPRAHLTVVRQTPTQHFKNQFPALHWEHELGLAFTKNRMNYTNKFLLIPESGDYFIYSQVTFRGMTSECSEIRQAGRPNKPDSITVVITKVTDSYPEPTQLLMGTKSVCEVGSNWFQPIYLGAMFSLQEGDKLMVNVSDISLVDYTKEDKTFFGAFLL
Experimental: In addition to measuring binding to scTL1A, binding to increasing concentrations of soluble recombinant human TL1A trimer (up to 100 nM) was measured at 37C via surface plasmon resonance.

Chain of LIGHT (O43557 74-240 limits assumed): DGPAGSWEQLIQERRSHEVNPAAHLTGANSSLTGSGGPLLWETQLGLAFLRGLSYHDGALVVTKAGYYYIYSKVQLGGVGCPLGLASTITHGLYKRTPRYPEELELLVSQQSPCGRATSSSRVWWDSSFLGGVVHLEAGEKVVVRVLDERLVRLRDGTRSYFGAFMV
Chain of TRAIL (P50591 114-281 limits assumed): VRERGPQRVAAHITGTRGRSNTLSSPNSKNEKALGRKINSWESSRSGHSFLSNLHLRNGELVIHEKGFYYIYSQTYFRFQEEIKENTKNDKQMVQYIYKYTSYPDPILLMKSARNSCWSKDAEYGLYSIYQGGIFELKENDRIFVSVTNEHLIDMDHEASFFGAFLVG

B1: XENP47942 70416_041[TL1a]_H1L1_Fab IgG1_PVA_/S267K/M428L/N434S (antibody, V domains shown)
VH: QVQLVQSGAEVKKPGASVKVSCKVSGFSVTSYNVHWVRQAPGQGLEWMGVMWSGGNTDYNSKFQGRVTMTRDTSTNTVYMELSSLRSEDTAVYYCARAGRYYHDSNYYWDFPYWGQGTLVTVSS
VL: DIQMTQSPSSVSASVGDRVTITCRASEDIYSGLAWYQQKPGKSPKLLIYGASSLQDGVPSRFSGSGSGTDYTLTISSLQPEDFATYFCQEGLKSPYTFGAGTKLEIKR
notes: also called XmAb942; Xmab942
B1 was tested, and the EC50 [1] was 1.1 nM, the binding result (TRAIL) was “no binding” and the binding result (LIGHT) was “no binding”. For the same binder, the binding result (FasL) was “no binding” and the Kd [2] was 8 to 10 pM.
